This data set concerns T1, Cc1cc2c(cc1C)N(C[C@H](O)[C@H](O)[C@H](O)COP(=O)(O)OP(=O)(O)OC[C@H]1O[C@@H](n3cnc4c(N)ncnc43)[C@H](O)[C@@H]1O)c1[nH]c(=O)[nH]c(=O)c1N2.
T1 construct: full-length, expressed and purified as in Kim et al. 2016; detergent-solubilised
As to the kind of experiment: rapid-scan stopped-flow heme reduction (A427), kobs vs [FADH-]. It is filed as biochemical, Oryctolagus cuniculus. Conditions: fast phase, single-turnover heme reduction, anaerobic, 20 mM HEPES pH 7.5, 150 mM NaCl, 0.1% LMNG.

STEAP1 (Oryctolagus cuniculus; L230G), sequence (chain, as listed by the source L230G): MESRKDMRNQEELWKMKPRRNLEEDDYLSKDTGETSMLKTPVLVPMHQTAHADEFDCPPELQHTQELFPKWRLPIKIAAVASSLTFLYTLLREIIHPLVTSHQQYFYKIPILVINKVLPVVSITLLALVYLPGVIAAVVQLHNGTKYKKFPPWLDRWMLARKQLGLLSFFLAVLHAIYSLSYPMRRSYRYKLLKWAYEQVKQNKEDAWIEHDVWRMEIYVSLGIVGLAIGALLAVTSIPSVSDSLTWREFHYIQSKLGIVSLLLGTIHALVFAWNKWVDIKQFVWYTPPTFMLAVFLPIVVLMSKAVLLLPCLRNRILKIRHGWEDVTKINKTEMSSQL

As for STEAP1 (Oryctolagus cuniculus), the Km (60% of change) came out at 4.7 µM.
Consider STEAP1 (Oryctolagus cuniculus; L230G), for which, where the note is “79% of change”, the Km turned out to be 3.6 µM.

These data come from publication PMC10659578, “Mechanism of stepwise electron transfer in six-transmembrane epithelial antigen of the prostate (STEAP) 1 and 2” (eLife, 2023).
